Experimental data published in patent US20260216242A1, “ALPP-SPECIFIC VARIANT ANTIGEN BINDING MOLECULES” (ALMAC DISCOVERY LIMITED, priority 2022, published 2026).

T1: ALPI expressed on the surface of CHO cells (CHO-ALPI) (Homo sapiens, UniProt P09923)
T1 construct: expressed in transfected cells
T1 sequence (P09923 20-503 limits assumed): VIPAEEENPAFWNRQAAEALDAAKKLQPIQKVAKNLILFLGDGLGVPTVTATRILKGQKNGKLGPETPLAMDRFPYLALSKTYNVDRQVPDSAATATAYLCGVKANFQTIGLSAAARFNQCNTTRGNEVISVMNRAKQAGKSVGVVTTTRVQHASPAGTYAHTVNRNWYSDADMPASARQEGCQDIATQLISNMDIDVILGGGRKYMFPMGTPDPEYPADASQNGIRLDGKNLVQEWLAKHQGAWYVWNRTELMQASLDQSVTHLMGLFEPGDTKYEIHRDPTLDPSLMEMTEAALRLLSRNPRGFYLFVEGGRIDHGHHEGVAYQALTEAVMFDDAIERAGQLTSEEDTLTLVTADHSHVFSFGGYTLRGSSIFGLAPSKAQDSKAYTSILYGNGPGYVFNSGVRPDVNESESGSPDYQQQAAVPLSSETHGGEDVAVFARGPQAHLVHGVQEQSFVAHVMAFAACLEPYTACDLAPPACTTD


Target: T1, ALPI expressed on the surface of CHO cells (CHO-ALPI)
Test: Cell-surface binding by flow cytometry, CHO-ALPI
Conditions: for KDapp CHO-ALPI: VHH His proteins, up to 350 nM; for KDapp CHO-ALPI / binding to ALPI on CHO cells (in words): flow cytometry; for ALPI MFI as % of the ALPP MFI: VHH His at 350 nM; for binding to ALPI on CHO cells (in words): VHH proteins
Experimental: C-terminal His tagged VHH proteins were assessed for ALPP, ALPPL2, ALPI and ALPL cell-surface binding by flow cytometry. Binders encompassing different epitope bins were screened on CHO cells stably expressing ALPP, ALPPL2, ALPI or ALPL. High levels of cell-surface proteins expression were confirmed for each of the cell-lines by flow cytometry.
Cell surface binding of test agents to hALPP isoforms was characterized in four CHO-ALPP isoform stably transfected cell lines (CHO-ALPP, CHO-ALPPL2, CHO-ALPI and CHO-ALPL) and the resulting KDapp values determined. Adherent cells were detached from tissue culture flasks by incubating with 0.1% EDTA/PBS solution at 37° C. for ~10 minutes or until cells detached easily. Cells were re-suspended in ice-cold PBS/2% FCS in 15 ml tubes and centrifuged at 1700 rpm for 5 mins at 4° C. Supernatant was removed and the cell pellet re-suspended in PBS/2% FCS. A cell count was performed using a Chemometec Nucleocounter NC-202 and 2.5×10^5 cells were aliquoted per test sample into a 96 well plate. Cells were incubated with 100 μl of test agents at a range of concentrations, plus controls for 1 hr on ice. The sample plate was centrifuged at 1700 rpm for 5 mins at 4° C. The supernatant was removed, and a wash performed by re-suspending the cell pellets in 0.25 mL of ice-cold PBS/2% FCS using a multichannel pipette. Samples were again centrifuged at 1700 rpm for 5 min at 4° C. Supernatant was removed and two further washes performed as described. After the final wash and centrifugation step, excess liquid was removed by blotting the plate on tissue paper. Binding of VHH (His6 tagged) agents was determined by adding 100 μl of anti-x6His tag Ab (Abcam) per cell pellet sample as appropriate and incubating on ice for 30 mins. Wash steps were performed as described previously. Fitc-anti-mouse antibody (ThermoFisher) was used to detect binding of the VHH (His6 tagged) agents by incubating with the appropriate samples for 30 min on ice in the dark. Wash steps were performed as described previously. All cell pellets were finally re-suspended in […] of ice-cold PBS/2% FCS and left on ice in the dark prior to analysis on a Merck-Millipore Guava EasyCyte HT or Thermo Fisher Attune N×T flow cytometer.
VHH-hFc proteins were assessed for human ALPP, ALPPL2, ALPI and ALPL cell-surface binding by flow cytometry. Binders were screened on CHO cells stably expressing human ALPP, ALPPL2, ALPI or ALPL.
Cell surface binding of test agents to hALPP isoforms was characterized in four CHO-ALPP isoform transfectant cell lines (CHO-ALPP, CHO-ALPPL2, CHO-ALPI and CHO-ALPL) and the resulting KDapp values determined. Adherent cells were detached from tissue culture flasks by incubating with 0.1% EDTA/PBS solution at 37° C. for ~10 minutes or until cells detached easily. Cells were re-suspended in ice-cold PBS/2% FCS in 15 ml tubes and centrifuged at 1700 rpm for 5 mins at 4° C. Supernatant was removed and the cell pellet re-suspended in PBS/2% FCS. A cell count was performed using a Chemometec Nucleocounter NC-202 and 2.5×10^5 cells were aliquoted per test sample into a 96 well plate. Cells were incubated with 100 μl of test agents at a range of concentrations, plus controls for 1 hr on ice. The sample plate was centrifuged at 1700 rpm for 5 mins at 4° C. The supernatant was removed, and a wash performed by re-suspending the cell pellets in 0.25 mL of ice-cold PBS/2% FCS using a multichannel pipette. Samples were again centrifuged at 1700 rpm for 5 min at 4° C. Supernatant was removed and two further washes performed as described. After the final wash and centrifugation step, excess liquid was removed by blotting the plate on tissue paper. Binding of VHH-hFc agents was determined by adding 100 μl of Fitc-anti-human Ab (ThermoFisher) and incubating for 30 mins on ice in the dark. Wash steps were performed as described previously. […]

KDapp CHO-ALPI	ALPI MFI as % of the ALPP MFI	binding to ALPI on CHO cells (in words)	Molecule
No binding			C07: ALPP/ALPPL2 targeting VHH domain, SEQ ID NO: 25 (protein) VHH: QVQLVESGGGLVQAGESLRLACAASGTIFSGNAVGWYRQAPEKQREWVSSITDYGDTDYAEAVKGRFTISRDNAKNTVYLQMNSLKPEDTAVYYCYVYQRGESEEYWGQGTQVTVSS
Minimal	1.3%	minimal binding	F08: ALPP/ALPPL2 targeting VHH domain, SEQ ID NO: 35 (protein) VHH: QVQLVESGGGSVQAGGSLRLSCAASGPSLSNYAMGWFRQAPGKEREFVAGISWGGGRTSYTDSVKGRFTISRDNAKNTVYLQMNNLKPEDTGVYYCAGRYGRGRNVEYEYDYWGQGTQVTVSS
No binding			B01: ALPP/ALPPL2 targeting VHH domain, SEQ ID NO: 20 (protein) VHH: QVQLVESGGGLVQAGGSLRLSCEVTRSPMPIDTMAWYRQAPGRQRELVAIISRSGSTNYADSVKGRFTISRNDTKSTMYKSTMYLKMNTLELEDTGVYYCNAVGLWNGAEYWGQGTQVTVSS
No binding			E06: ALPP/ALPPL2 targeting VHH domain, SEQ ID NO: 30 (protein) VHH: QVHLVESGGGLVQAGGSLRLSCAASRRSFSEYAMGWFRQAPGKEREFVAAIGWSGVIEYADSVKGRFTISRDNAKDTVYLQMNSLKPEDTAVYYCAAGLGIRVVSQTPAYWGQGTQVTVSS
Minimal	9.5%	weak binding	D04: ALPP/ALPPL2 targeting VHH domain, SEQ ID NO: 26 (protein) VHH: QVQLVESGGGLVQPGGSLRLSCAASESTFSINVMGWYRQAPGKQRELVATITSGDITNYADSVKGRFTISRDNAENTVYLRTNSLKPEDTAVYYCNARGEYHSGNEYDYWGQGTQVTVSS
No binding			E10: ALPP/ALPPL2 targeting VHH domain, SEQ ID NO: 31 (protein) VHH: QVQLVESGGGLVQAGGSLRLSCAVSGRALSDYNIGWFRQAPGKEREFVARKTWDGSSTRYDDSVKGRFTVSIEDAKNTAYLQMSSLKTEDTAVYYCAAGRYSRARGWEYDYWGQGTQVTVSS
No binding			F05: ALPP/ALPPL2 targeting VHH domain, SEQ ID NO: 34 (protein) VHH: QVQLVESGGGLVQAGGSLRLSCAASGRAFGDYNIGWFRQAPGKEREFVARRTWDGSSTRYDDSVKGRFTVSIDNAKNTAYLQMNSLKTEDTAVYYCAAGRYSRVRGWEYDYWGQGTQVTVSS
No binding			A05: ALPP/ALPPL2 targeting VHH domain, SEQ ID NO: 16; tested C-terminally His-tagged (protein, C-terminal His tag, tested C-terminally His-tagged) VHH: QVQLVESGGGLVQAGASLTLSCAASGFTFNTRSIVWFRQAPGKEREAVSCISKVAGSTYYGDSVQGRFSSSTDNAKNTVSLQMNSLKPEDTAVYTCAASFAPNCYGWSVAANMEYWGEGTMVTVSS
No binding			A06: ALPP/ALPPL2 targeting VHH domain, SEQ ID NO: 17; tested C-terminally His-tagged (protein, C-terminal His tag, tested C-terminally His-tagged) VHH: QVHLVESGGGLVQAGGSLRLSCAASGRTFLSMGWFRQAPGKEREFVAAISWTGGSTGYADSVKGRFTISRESDKETMYLQMNSLKPEDTAVYYCAARGDVYYGGDDATRYKYWGQGTQVTVSS
No binding			D10: ALPP targeting VHH domain, SEQ ID NO: 28 (protein) VHH: QVQLVESGGGLVQPGGSLRLSCAASGSIFSVNTMGWYRQAPGKQRDLVAVATSGGTIHYADSVKGRFTISRDNAKNTVYLQMNSLKPEDTAVYYCNLVVPYGMIAGDHDYWGQGTKVTVSS
